Test results as given in paper PMC7295778.

Legend:
[1] = target: KirBac3.1 A133C-T136C (Cys-less background C262S, C71V, C119V) crosslinked with MTS-1-MTS (UniProt D9N164); experiment: cross-linking; purified cysteine-pair mutants at 0.03-4 mg/ml in 20 mM TRIS pH 8.0, 150 mM KCl, 0.02% DDM; MTS-1-MTS 0.5 mM, dibromobimane 2.5 mM or CuSO4 1 mM, room temperature, 30 min; read by SDS-PAGE
[2] = target: KirBac3.1 A133C-T136C (Cys-less background C262S, C71V, C119V) crosslinked with MTS-1-MTS (UniProt D9N164); experiment: native MS; 200 mM ammonium acetate pH 8.0, 0.5% C8E4; Q-ToF and QExactive; collision-induced dissociation in the gas phase on the Q-ToF
[3] = target: KirBac3.1 A133C-T136C (Cys-less background C262S, C71V, C119V) crosslinked with dibromobimane (UniProt D9N164); experiment: cross-linking; purified cysteine-pair mutants at 0.03-4 mg/ml in 20 mM TRIS pH 8.0, 150 mM KCl, 0.02% DDM; MTS-1-MTS 0.5 mM, dibromobimane 2.5 mM or CuSO4 1 mM, room temperature, 30 min; read by SDS-PAGE
[4] = target: KirBac3.1 A133C-T136C (Cys-less background C262S, C71V, C119V) crosslinked with dibromobimane (UniProt D9N164); experiment: native MS; 200 mM ammonium acetate pH 8.0, 0.5% C8E4; Q-ToF and QExactive; collision-induced dissociation in the gas phase on the Q-ToF
[5] = target: KirBac3.1 A133C-T136C (Cys-less background C262S, C71V, C119V), disulfide-linked (UniProt D9N164); experiment: cross-linking; purified cysteine-pair mutants at 0.03-4 mg/ml in 20 mM TRIS pH 8.0, 150 mM KCl, 0.02% DDM; MTS-1-MTS 0.5 mM, dibromobimane 2.5 mM or CuSO4 1 mM, room temperature, 30 min; read by SDS-PAGE
[6] = target: KirBac3.1 A133C-T136C (Cys-less background C262S, C71V, C119V), disulfide-linked (UniProt D9N164); experiment: native MS; 200 mM ammonium acetate pH 8.0, 0.5% C8E4; Q-ToF and QExactive; collision-induced dissociation in the gas phase on the Q-ToF
[7] = target: KirBac3.1 S129C-F135C (Cys-less background C262S, C71V, C119V) crosslinked with MTS-1-MTS (UniProt D9N164); experiment: cross-linking; purified cysteine-pair mutants at 0.03-4 mg/ml in 20 mM TRIS pH 8.0, 150 mM KCl, 0.02% DDM; MTS-1-MTS 0.5 mM, dibromobimane 2.5 mM or CuSO4 1 mM, room temperature, 30 min; read by SDS-PAGE
[8] = target: KirBac3.1 S129C-F135C (Cys-less background C262S, C71V, C119V) crosslinked with MTS-1-MTS (UniProt D9N164); experiment: native MS; 200 mM ammonium acetate pH 8.0, 0.5% C8E4; Q-ToF and QExactive; collision-induced dissociation in the gas phase on the Q-ToF
[9] = target: KirBac3.1 S129C-F135C (Cys-less background C262S, C71V, C119V) crosslinked with dibromobimane (UniProt D9N164); experiment: cross-linking; purified cysteine-pair mutants at 0.03-4 mg/ml in 20 mM TRIS pH 8.0, 150 mM KCl, 0.02% DDM; MTS-1-MTS 0.5 mM, dibromobimane 2.5 mM or CuSO4 1 mM, room temperature, 30 min; read by SDS-PAGE
[10] = target: KirBac3.1 S129C-F135C (Cys-less background C262S, C71V, C119V) crosslinked with dibromobimane (UniProt D9N164); experiment: native MS; 200 mM ammonium acetate pH 8.0, 0.5% C8E4; Q-ToF and QExactive; collision-induced dissociation in the gas phase on the Q-ToF
[11] = target: KirBac3.1 S129C-F135C (Cys-less background C262S, C71V, C119V), disulfide-linked (UniProt D9N164); experiment: cross-linking; purified cysteine-pair mutants at 0.03-4 mg/ml in 20 mM TRIS pH 8.0, 150 mM KCl, 0.02% DDM; MTS-1-MTS 0.5 mM, dibromobimane 2.5 mM or CuSO4 1 mM, room temperature, 30 min; read by SDS-PAGE
[12] = target: KirBac3.1 S129C-F135C (Cys-less background C262S, C71V, C119V), disulfide-linked (UniProt D9N164); experiment: native MS; 200 mM ammonium acetate pH 8.0, 0.5% C8E4; Q-ToF and QExactive; collision-induced dissociation in the gas phase on the Q-ToF

In the case of “KirBac3.1 A133C-T136C (Cys-less background C262S, C71V, C119V) crosslinked with MTS-1-MTS (from UniProt D9N164 1-295) (natural protein)”, the stoichiometry N [1] is reported as 4 and the stoichiometry N [2] is reported as 4.
“KirBac3.1 A133C-T136C (Cys-less background C262S, C71V, C119V) crosslinked with dibromobimane (from UniProt D9N164 1-295) (natural protein)” gave a stoichiometry N [3] of 4 and a stoichiometry N [4] of 4.
Work on “KirBac3.1 A133C-T136C (Cys-less background C262S, C71V, C119V), disulfide-linked (from UniProt D9N164 1-295) (natural protein)” yielded a stoichiometry N [5] of 4 and a stoichiometry N [6] of 4.
In the case of “KirBac3.1 S129C-F135C (Cys-less background C262S, C71V, C119V) crosslinked with MTS-1-MTS (from UniProt D9N164 1-295) (natural protein)”, the stoichiometry N [7] is reported as 4 and the stoichiometry N [8] is reported as 4.
Substance “KirBac3.1 S129C-F135C (Cys-less background C262S, C71V, C119V) crosslinked with dibromobimane (from UniProt D9N164 1-295) (natural protein)” has a stoichiometry N [9] of 4 and a stoichiometry N [10] of 4.
“KirBac3.1 S129C-F135C (Cys-less background C262S, C71V, C119V), disulfide-linked (from UniProt D9N164 1-295) (natural protein)” showed a stoichiometry N [11] of 4 and a stoichiometry N [12] of 4.
